Data on three molecules can be found in patent US20170114130A1 (University of California, published 2017).

The target of experiment [1] is human IL-2 (recombinant IL-2, Humanzyme) (human) (UniProt P60568). The experiment is described as follows: SPR (Biacore T200), antibody captured on anti-mouse IgG, IL-2 injected, 25 C, 1:1 Langmuir fit. In general terms: SPR reads the build-up and loss of mass on a sensor chip optically.
For experiment [2] the target is unchanged. The experiment is described as follows: SPR (Biacore T200), antibody captured on anti-mouse IgG, IL-2 injected; calculated with the assumed off-rate limit.
The target is the same in experiment [3]. The experiment in a line: SPR, human IL-2; the value repeats Table 3 (assumed off-rate limit).
Experiment [4] has the same target. The experiment in a line: SPR (Biacore T200), antibody captured on anti-mouse IgG, IL-2 injected; off-rate outside the specifications of the instrument, assumed limit.
Experiment [5] concerns the target recombinant cynomolgus monkey (Macaca fascicularis) IL-2 (cynomolgus monkey (Macaca fascicularis)) (UniProt Q29615). The experiment in a line: SPR as in Example 1, cynomolgus IL-2 1-100 nM, 1:1 Langmuir or steady-state fit.
The target in experiment [6] is T1, d1C7/IL-2 complex (human, UniProt P60568 21-153).
T1 construct: Non-covalent complex: IL-2 (333 nM) pre-incubated with d1C7 IgG (1000 nM) for at least 20 minutes; also called clone d1C7/IL-2 complex
T1 sequence (VH, as listed by the source limits assumed, chain 1 of 3): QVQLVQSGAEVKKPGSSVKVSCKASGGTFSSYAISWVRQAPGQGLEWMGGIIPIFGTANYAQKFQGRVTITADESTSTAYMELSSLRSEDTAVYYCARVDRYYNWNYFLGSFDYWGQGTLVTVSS
T1 sequence (VL, as listed by the source limits assumed, chain 2 of 3): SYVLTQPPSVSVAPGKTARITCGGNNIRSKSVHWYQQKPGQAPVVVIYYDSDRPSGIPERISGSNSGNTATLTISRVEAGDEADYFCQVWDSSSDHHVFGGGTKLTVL
T1 sequence (P60568 21-153 limits assumed, chain 3 of 3): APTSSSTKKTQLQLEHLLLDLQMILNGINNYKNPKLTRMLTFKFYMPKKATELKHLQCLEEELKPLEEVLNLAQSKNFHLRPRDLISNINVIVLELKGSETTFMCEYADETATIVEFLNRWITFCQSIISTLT
The experiment in a line: SPR (Biacore T200), complex injected over biotinylated receptor on streptavidin chip. Here is the method: Experiments were performed at 25° C. using a 10 μL/minute flow rate in 10 mM HEPES (pH 7.4), 150 mM NaCl and 0.005% v/v Surfactant P20 buffer. […] Data was background subtracted using the adjacent control flow cell and buffer only injections.

Experiment [7] addresses T2, IL-2/F5.1.11 Fab complex (human, UniProt P60568 21-153).
T2 construct: also called F5.1.11/IL-2
The experiment in a line: SPR (Biacore T200), 1-500 nM IL-2 pre-complexed with excess Fab over biotinylated IL-2Rα, equilibrium analysis. Here is the method: Experiments were performed at 25° C. using a 10 μL/minute flow rate in 10 mM HEPES (pH7.4), 150 mM NaCl and 0.005% v/v Surfactant P20 buffer. […] Data was background subtracted using the adjacent control flow cell and buffer only injections. The affinity of the interaction was calculated from concentration-response relationship at equilibrium.

human IL-2 (recombinant IL-2, Humanzyme) (human), sequence (P60568 21-153 limits assumed): as the sequence (P60568 21-153 limits assumed, chain 3 of 3) above
T2 sequence (VH, as listed by the source limits assumed, chain 1 of 3): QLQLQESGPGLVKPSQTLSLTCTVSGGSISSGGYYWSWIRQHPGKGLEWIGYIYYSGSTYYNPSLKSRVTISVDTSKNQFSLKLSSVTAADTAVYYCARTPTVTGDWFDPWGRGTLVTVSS
T2 sequence (VL, as listed by the source limits assumed, chain 2 of 3): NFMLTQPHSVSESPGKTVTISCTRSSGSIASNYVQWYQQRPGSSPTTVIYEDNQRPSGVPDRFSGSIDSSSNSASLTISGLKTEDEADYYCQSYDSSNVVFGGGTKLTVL
T2 sequence (P60568 21-153 limits assumed, chain 3 of 3): as the sequence (P60568 21-153 limits assumed, chain 3 of 3) above
recombinant cynomolgus monkey (Macaca fascicularis) IL-2 (cynomolgus monkey (Macaca fascicularis)), sequence (Q29615 21-154 limits assumed): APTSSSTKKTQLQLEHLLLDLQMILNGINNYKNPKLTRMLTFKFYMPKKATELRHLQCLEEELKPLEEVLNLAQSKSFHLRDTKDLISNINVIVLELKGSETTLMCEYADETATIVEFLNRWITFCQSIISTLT

For orientation: kon means the rate constant with which the complex forms. What is called Kd is the concentration at which binding is half-saturated. The term koff denotes the first-order rate constant of dissociation. In the case of “mouse anti-human IL-2 clone 5344 (clone 5344.111, BD Biosciences) (antibody)”, in experiment [1], the kon amounted to 1.02e+06 M⁻¹ s⁻¹. The Kd is less than 0.05 nM in experiment [2], less than 0.05 nM in experiment [3] and greater than 50 nM in experiment [5]. Also, in experiment [4], the koff is less than 5e-05 s⁻¹.

B1: recombinant IL-2Rβ, biotin labeled (receptor, UniProt P14784 27-240, looked up)
chain: AVNGTSQFTCFYNSRANISCVWSQDGALQDTSCQVHAWPDRRRWNQTCELLPVSQASWACNLILGAPDSQKLTTVDIVTLRVLCREGVRWRVMAIQDFKPFENLRLMAPISLQVVHVETHRCNISWEISQASHYFERHLEFEARTLSPGHTWEEAPLLTLKQKQEWICLETLTPDTQYEFQVRVKPLQGEFTTWSPWSQPLAFRTKPAALGKDT
modifications: biotin labeled (site not stated)
notes: also called CD122
Regarding B1, the binding result in experiment [6] is listed as “no binding (tested: IL-2 333 nM with IgG 1000 nM)”.

B2: recombinant IL-2Rα, biotin labeled (receptor, UniProt P01589 22-240, looked up)
chain: ELCDDDPPEIPHATFKAMAYKEGTMLNCECKRGFRRIKSGSLYMLCTGNSSHSSWDNQCQCTSSATRNTTKQVTPQPEEQKERKTTEMQSPMQPVDQASLPGHCREPPPWENEATERIYHFVVGQMVYYQCVQGYRALHRGPAESVCKMTHGKTRWTQPQLICTGEMETSQFPGEEKPQASPEGRPESETSCLVTTTDFQIQTEMAATMETSIFTTEYQ
modifications: biotin labeled (site not stated)
notes: also called IL-2α; IL-2a
For the molecule B2, in experiment [7], the Kd came out at 70.1 nM.
